In patent US20250114463A1, “LIVER-TARGETED DRUG AND USE THEREOF” (HANMI PHARM. CO., LTD., priority 2021, published 2025):
Bridges are numbered along the chain shown (N, C = ends). Where no end group is shown, it is not given here. [ ]: non-standard residue; d: D form. The star is where a group is joined. Acetyl(2-(4-imidazolyl)) = O=C(Cc1c[nH]cn1)*; Aib = CC(C)(N)C(=O)O

T1: human GIP receptor (human, UniProt P48546 22-466)
T1 sequence (looked up): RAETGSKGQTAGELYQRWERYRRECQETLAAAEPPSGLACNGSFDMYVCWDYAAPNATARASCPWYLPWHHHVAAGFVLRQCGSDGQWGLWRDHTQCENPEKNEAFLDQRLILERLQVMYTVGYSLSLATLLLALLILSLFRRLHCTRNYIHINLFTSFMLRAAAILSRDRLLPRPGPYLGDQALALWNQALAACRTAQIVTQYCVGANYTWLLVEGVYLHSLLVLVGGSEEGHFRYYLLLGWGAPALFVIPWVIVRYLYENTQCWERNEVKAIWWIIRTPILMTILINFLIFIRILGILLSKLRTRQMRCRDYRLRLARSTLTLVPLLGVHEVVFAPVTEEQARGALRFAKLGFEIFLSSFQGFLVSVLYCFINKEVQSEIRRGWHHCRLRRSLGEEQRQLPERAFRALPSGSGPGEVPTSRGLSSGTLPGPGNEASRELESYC

B1: triple agonist of SEQ ID NO: 17 (peptide)
peptide: [Acetyl(2-(4-imidazolyl))]GQGTFTSDLSKQMDEERAREFIEWLLAQKPSSGAPPPSHG-NH2
B2: triple agonist of SEQ ID NO: 21 (peptide)
peptide: Y[Aib]QGTFTSDYSKYLDECRAKEFVQWLLDHHPSSGQPPPS-NH2
modifications: bridge 16-20; also: ring type not given here
B3: triple agonist of SEQ ID NO: 16 (peptide)
peptide: [Acetyl(2-(4-imidazolyl))]GQGTFTSDLSKQMDSEAQQLFIEWLKNGGPSSGAPPPSHG-NH2
B4: triple agonist of SEQ ID NO: 14 (peptide)
peptide: [Acetyl(2-(4-imidazolyl))]GQGTFTSDYSIQLDEIAVRDFVEWLKNGGPSSGAPPPSHG-NH2
B5: triple agonist of SEQ ID NO: 22 (peptide)
peptide: Y[Aib]QGTFTSDYSKCLDEKRAKEFVQWLLDHHPSSGQPPPS-NH2
modifications: bridge 16-20
B6: triple agonist of SEQ ID NO: 18 (peptide)
peptide: [Acetyl(2-(4-imidazolyl))]GQGTFTSDLSKQMDSERAREFIEWLKNTGPSSGAPPPSHG-NH2
B7: triple agonist of SEQ ID NO: 20 (peptide)
peptide: [Acetyl(2-(4-imidazolyl))]GQGTFTSDLSIQYEEEAQQDFVEWLKDTGPSSGAPPPSHG-NH2
B8: triple agonist of SEQ ID NO: 2 (peptide)
peptide: HXQGTFTSDVSSYLDGQAQKEFIAWLVKGC
HELM: PEPTIDE1{H.[Aib].Q.G.T.F.T.S.D.V.S.S.Y.L.D.G.Q.A.Q.K.E.F.I.A.W.L.V.K.G.C.[am]}$$$$V2.0; N-terminus assumed
SMILES: CC[C@H](C)[C@H](NC(=O)[C@H](Cc1ccccc1)NC(=O)[C@H](CCC(=O)O)NC(=O)[C@H](CCCCN)NC(=O)[C@H](CCC(N)=O)NC(=O)[C@H](C)NC(=O)[C@H](CCC(N)=O)NC(=O)CNC(=O)[C@H](CC(=O)O)NC(=O)[C@H](CC(C)C)NC(=O)[C@H](Cc1ccc(O)cc1)NC(=O)[C@H](CO)NC(=O)[C@H](CO)NC(=O)[C@@H](NC(=O)[C@H](CC(=O)O)NC(=O)[C@H](CO)NC(=O)[C@@H](NC(=O)[C@H](Cc1ccccc1)NC(=O)[C@@H](NC(=O)CNC(=O)[C@H](CCC(N)=O)NC(=O)C(C)(C)NC(=O)[C@@H](N)Cc1c[nH]cn1)[C@@H](C)O)[C@@H](C)O)C(C)C)C(=O)N[C@@H](C)C(=O)N[C@@H](Cc1c[nH]c2ccccc12)C(=O)N[C@@H](CC(C)C)C(=O)N[C@H](C(=O)N[C@@H](CCCCN)C(=O)NCC(=O)N[C@@H](CS)C(N)=O)C(C)C
B9: triple agonist of SEQ ID NO: 19 (peptide)
peptide: [Acetyl(2-(4-imidazolyl))]GQGTFTSDLSIQYDSEHQRDFIEWLKDTGPSSGAPPPSHG-NH2

What follows are binders tested against human GLP-1 receptor (human, UniProt P43220 24-463) (assay: cell-based or functional assay).

Point of comparison: B3, “in vitro Activity Compared to Native Peptide (%), vs GLP-1” value 2.1%. Against it:
- B1 — lower, 0.2%
- B2 — higher, 17.8%
- B4 — higher, 28%
- B5 — higher, 20.1%
- B6 — lower, < 0.1%
- B7 — lower, < 0.1%
- B8 — higher, 5.9%
- B9 — lower, < 0.1%

The binders below were run against human GCG receptor (human, UniProt P47871 26-477) (assay: cell-based or functional assay).
Sequence of human GCG receptor (P47871 26-477): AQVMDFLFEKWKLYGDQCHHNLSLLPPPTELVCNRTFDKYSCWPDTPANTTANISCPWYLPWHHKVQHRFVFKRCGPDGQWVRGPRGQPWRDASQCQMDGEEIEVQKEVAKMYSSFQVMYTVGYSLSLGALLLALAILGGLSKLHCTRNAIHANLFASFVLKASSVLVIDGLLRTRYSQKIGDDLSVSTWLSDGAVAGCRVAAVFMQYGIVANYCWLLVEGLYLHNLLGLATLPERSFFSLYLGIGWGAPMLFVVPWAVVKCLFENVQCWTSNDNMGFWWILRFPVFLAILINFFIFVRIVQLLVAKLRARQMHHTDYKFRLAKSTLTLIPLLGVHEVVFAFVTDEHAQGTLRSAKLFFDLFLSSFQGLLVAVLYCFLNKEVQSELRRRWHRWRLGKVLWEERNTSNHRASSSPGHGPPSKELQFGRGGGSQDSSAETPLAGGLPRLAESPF

Point of comparison: B5, “in vitro Activity Compared to Native Peptide (%), vs Glucagon” value 140%. Against it:
- B1 — lower, < 0.1%
- B2 — higher, 267%
- B3 — lower, < 0.1%
- B4 — lower, < 0.1%
- B6 — lower, < 0.1%
- B7 — lower, < 0.1%
- B8 — lower, < 0.1%
- B9 — lower, < 0.1%

Each binder was assayed against T1, human GIP receptor (assay: cell-based or functional assay).

Point of comparison: B2, “in vitro Activity Compared to Native Peptide (%), vs GIP” value 22.7%. Against it:
- B1 — lower, < 0.1%
- B3 — lower, < 0.1%
- B4 — lower, < 0.1%
- B5 — higher, 59.7%
- B6 — lower, < 0.1%
- B7 — lower, < 0.1%
- B8 — lower, < 0.1%
- B9 — lower, < 0.1%
